We go through two molecules from patent US7655619B2, “Insulin-associated peptides with effects on cerebral health” (Thomas Jefferson University, priority 2002, dated 2010).

Series [1] has as its system rats. Description: one-trial passive avoidance procedure (associative learning), intranasal pretreatment. In kind it is in vivo, Male Sprague Dawley rats. How it is done: Passive avoidance was performed in an apparatus (MED Associates Inc., St. Albans, Vt.) consisting of one dark chamber and one light chamber that can be divided by a guillotine door. The training procedure was executed as previously described (N. Venable et al. Psychopharmacology 100, 215 (1990)). Rats were administered a 1.0 mA shock for 3 sec, mice a 0.5 mA shock for 5 sec. Retention tests were performed either at 1, 3 or 7 days post-pairing. Maximum latency was 600 sec for rats, 300 sec for mice.
A control group received vehicle (5% cyclodextrin) alone.

Series [2] relates to rats. Description: Morris Water Maze (spatial learning), intranasal administration. In kind it is in vivo, Male Sprague Dawley rats.
Method: Spatial learning was assessed using the Morris Water Maze (Morris et al. Nature, 1982, 297: 681). […] Animals were anaesthetized with isofluorane then administered peptide intra-nasally 20 min before testing. Rats were given four training trials. 48 h after training, a retention test was performed: rats were allowed to find the hidden platform for one trial. […] Latency to find the platform was considered a measure of retention of spatial learning.
Series [3] relates to rats. Briefly: locomotor activity in open field testing chamber. The note with it: 3-30 μg intranasal, 30 minutes in open field chamber, data not shown. The method, then: Following pretreatment, the rats were placed for 30 minutes in an open field testing chamber (17″×17″×12″ H) where movement was detected every 50 ms by infrared photo beam emitter and detector strips at 1″ and 10″ from the bottom of the chamber. The activity chambers were lined to a PC computer and data was compiled via Activity Monitor Software (4.0, MED Associates, St. Albans, Vt.).

Series [4] concerns rats. Briefly: one-trial passive avoidance with insulin antagonist α2HSG alone or in combination. In kind it is in vivo. The note with it: for latency time in passive avoidance: compared to vehicle alone.
Method: After a 20 minute pretreatment time, rats were placed in the light side of a two-chambered light/dark Plexiglas passive avoidance apparatus (MED Associates). Once the rat entered the dark chamber, a guillotine door was closed and a 1.0 mA shock (3 sec) was administered. The door was then raised and the rat was allowed to re-enter the light side. Latency (max 600 sec) to enter the dark chamber was taken as a measurement of associative learning.
Series [5] can be described thus: blood glucose levels by glucometer after intranasal administration. The following applies: doses 3-30 μg, twenty minutes after administration, vs vehicle. How it is done: Rats (N-5/group) were first anesthetized with isoflorane anesthesia and then administered vehicle (5% (2,6-DI—O-methyl)β-cyclodextrin) or insulin (3-30 μg, 28 USP units/mg) intra-nasally. Twenty minutes later, rats were sacrificed and blood glucose levels rapidly determined with a glucometer (Elite XL, Bayer).

Take “insulin: insulin from bovine pancreas (C254H377N65O75S6), 28 USP units/mg, from Sigma”: in the series with rats [1] (FIG. 9, 24 hours), the “retention of associative learning (24 hours)” value was “enhances retention of associative learning”. Also, the “latency to enter the dark chamber (associative learning)” value with rats [1] (intranasal 10 μg dose, pretreatment 20 min, compared to vehicle) is on record as “significantly (P<0.05) enhanced latency”. Also, the “latency to find hidden platform, retention test” value with rats [2] (intranasal 3 μg, 48 hours following training, compared to vehicle) is “significantly deceased latency”. In addition, in the series on rats [2] (intranasal 3-30 μg, four training trials, between groups incl. vehicle), the “latency to find submerged platform, acquisition during training” value is on record as “No significant differences occurred in acquisition between groups during training”. In the series with rats [2] (intranasal, compared to vehicle), the swimming speed result is “do not affect swimming speed compared to vehicle”. Moreover, the “distance traveled (locomotor activity)” value in the series with rats [3] is given as “did not differ between treatments”. For the same molecule, the “latency time in passive avoidance” value in the series with rats [4] (insulin 10 μg alone intranasal) is listed as “enhanced latency time”. For the same molecule, the blood glucose levels result in series [5] is listed as “no significant differences between treatment groups”.

B1: α2HSG: endogenous inhibitor of insulin receptor tyrosine kinase activity; insulin antagonist (protein, UniProt P02765 19-300; P02765 341-367, looked up)
Alpha-2-HS-glycoprotein chain … 1: APHGPGLIYRQPNCDDPETEEAALVAIDYINQNLPWGYKHTLNQIDEVKVWPQQPSGELFEIEIDTLETTCHVLDPTPVARCSVRQLKEHAVEGDCDFQLLKLDGKFSVVYAKCDSSPDSAEDVRKVCQDCPLLAPLNDTRVVHAAKAALAAFNAQNNGSNFQLEEISRAQLVPLPPSTYVEFTVSGTDCVAKEATEAAKCNLLAEKQYGFCKATLSEKLGGAEVAVTCMVFQTQPVSSQPQPEGANEAVPTPVVDPDAPPSPPLGAPGLPPAGSPPDSHVL
Alpha-2-HS-glycoprotein chain … 2: TVVQPSVGAAAGPVVPPCPGRIRHFKV
As for B1, the “latency time in passive avoidance” value with rats [4] (α2HSG 30 μg alone) was “no difference between antagonist alone and vehicle alone”. For the same molecule, the “effect on enhancement of latency times by A-chain” value in the series with rats [4] (α2HSG 30 μg in combination with A-chain 3 μg, intranasal) is reported as “blocked enhancement of latency times by A-chain”. Also, the “effect on enhancement of latency times by insulin” value with rats [4] (α2HSG 3-30 μg in combination with insulin 10 μg, intranasal) is recorded as “blocked enhancement of latency times by insulin”.
